B1: leronlimab (human IgG4 Fc) (antibody, V domains shown)
VH: EVQLVESGGGLVKPGGSLRLSCAASGYTFSNYWIGWVRQAPGKGLEWIGDIYPGGNYIRNNEKFKDKTTLSADTSKNTAYLQMNSLKTEDTAVYYCGSSFGSNYVFAWFTYWGQGTLVTVSS
VL: DIVMTQSPLSLPVTPGEPASISCRSSQRLLSSYGHTYLHWYLQKPGQSPQLLIYEVSNRFSGVPDRFSGSGSGTDFTLKISRVEAEDVGVYYCSQSTHVPLTFGQGTKVEIK
notes: also called PRO140; PRO 140
B2: macaque IgG4 LS leronlimab (antibody, V domains shown)
VH: B1 VH
VL: DIVMTQSPLSLPVTPGEPASISCRSSQRLLSSYGHTYLHWYLQKPGQSPQLLIYEVSNRFSGVPDRFSGSGSGTDFTLKISRVEAEDVGVYYCSQSTHVPLTFGQGTKVEIKR
notes: also called MacLS; macaque IgG4 LS variant

How the values were obtained:
[1] = molecular target: T1, CCR5 on CD4+ T cells of rhesus macaques (rhesus macaque, UniProt P61813 1-352); experiment: CCR5 receptor occupancy by flow cytometry on blood CD4+ T cells after a single 10 mg/kg s.c. dose in rhesus macaques
T1 construct: also called surface CCR5; CD195

[2] = molecular target: T1, CCR5 on CD4+ T cells of rhesus macaques; experiment: CCR5 receptor occupancy by flow cytometry on blood, rectal and vaginal CD4+ T cells after a single 10 mg/kg s.c. dose in rhesus macaques

Binder	binding result [1]	binding result [2]
B1	binds	
B2		binds

— patent US20240392015A1 (OREGON HEALTH AND SCIENCE UNIVERSITY, published 2024)
